Results reported in US6403637B1, “Methods of modulating matrix metalloproteinase activity and uses thereof” (priority 1999, dated 2002).

Test system: UMR 106-01 rat osteosarcoma cells
Assay: Binding of 125I-labeled proteinases to UMR 106-01 cells
Conditions: 125I-labeled ligand 8 nM; means ± SEM for triplicate wells

B1: Human MMP-2: human 72 kDa gelatinase (MMP-2) (protein, UniProt P08253 110-660, looked up)
72 kDa type IV collagenase: YNFFPRKPKWDKNQITYRIIGYTPDLDPETVDDAFARAFQVWSDVTPLRFSRIHDGEADIMINFGRWEHGDGYPFDGKDGLLAHAFAPGTGVGGDSHFDDDELWTLGEGQVVRVKYGNADGEYCKFPFLFNGKEYNSCTDTGRSDGFLWCSTTYNFEKDGKYGFCPHEALFTMGGNAEGQPCKFPFRFQGTSYDSCTTEGRTDGYRWCGTTEDYDRDKKYGFCPETAMSTVGGNSEGAPCVFPFTFLGNKYESCTSAGRSDGKMWCATTANYDDDRKWGFCPDQGYSLFLVAAHEFGHAMGLEHSQDPGALMAPIYTYTKNFRLSQDDIKGIQELYGASPDIDLGTGPTPTLGPVTPEICKQDIVFDGIAQIRGEIFFFKDRFIWRTVTPRDKPMGPLLVATFWPELPEKIDAVYEAPQEEKAVFFAGNEYWIYSASTLERGYPKPLTSLGLPPDVQRVDAAFNWSKNKKTYIFAGDKFWRYNEVKKKMDPGFPKLIADAWNAIPDNLDAVVDLQGGGHSYFFKGAYYLKLENQSLKSVKFGSIKSDWLGC
Specific binding: 0.0 ± 0.0 fmol/2.6 × 10^5 cells
